According to patent US20050048527, “Endonuclease-substrate complexes” (Third Wave Technologies, Inc., published 2005):

T1: Afu FEN1 (Archaeoglobus fulgidus, UniProt O29975 SEQ:1-336)
T1 sequence: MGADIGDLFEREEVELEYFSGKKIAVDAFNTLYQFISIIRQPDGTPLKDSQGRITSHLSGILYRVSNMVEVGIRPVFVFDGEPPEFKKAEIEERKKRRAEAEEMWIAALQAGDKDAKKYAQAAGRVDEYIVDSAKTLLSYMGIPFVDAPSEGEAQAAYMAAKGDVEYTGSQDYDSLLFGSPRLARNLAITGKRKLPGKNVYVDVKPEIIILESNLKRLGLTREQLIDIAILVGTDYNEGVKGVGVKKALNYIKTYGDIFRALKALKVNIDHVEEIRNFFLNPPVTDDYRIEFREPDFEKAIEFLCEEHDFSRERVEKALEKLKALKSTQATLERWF

T2: Mja FEN1 (Methanococcus jannaschii, UniProt Q58839 SEQ:1-326)
T2 sequence: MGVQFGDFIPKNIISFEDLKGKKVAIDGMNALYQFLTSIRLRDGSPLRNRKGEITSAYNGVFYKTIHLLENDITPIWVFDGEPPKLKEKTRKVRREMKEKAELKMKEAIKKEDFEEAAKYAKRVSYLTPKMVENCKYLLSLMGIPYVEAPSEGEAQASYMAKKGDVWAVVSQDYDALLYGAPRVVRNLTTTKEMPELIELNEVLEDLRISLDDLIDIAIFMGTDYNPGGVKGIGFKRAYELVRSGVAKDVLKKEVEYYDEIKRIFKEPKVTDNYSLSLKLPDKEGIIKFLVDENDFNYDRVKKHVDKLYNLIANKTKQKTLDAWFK

T3: Pho4M FEN1 (Pyrococcus horikoshii, UniProt O50123 SEQ:1-343)
T3 chain: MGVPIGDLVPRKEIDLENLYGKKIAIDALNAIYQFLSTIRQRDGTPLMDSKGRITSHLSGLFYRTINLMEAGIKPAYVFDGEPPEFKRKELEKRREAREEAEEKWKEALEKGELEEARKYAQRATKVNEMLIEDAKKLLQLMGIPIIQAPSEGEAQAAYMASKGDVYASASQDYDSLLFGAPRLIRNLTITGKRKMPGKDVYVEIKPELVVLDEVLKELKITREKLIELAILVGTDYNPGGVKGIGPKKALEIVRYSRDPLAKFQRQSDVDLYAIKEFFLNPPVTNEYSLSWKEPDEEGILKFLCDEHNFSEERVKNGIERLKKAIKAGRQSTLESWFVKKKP

T4: Pho1M FEN1 (Pyrococcus horikoshii, UniProt O50123 SEQ:1-343)
T4 chain: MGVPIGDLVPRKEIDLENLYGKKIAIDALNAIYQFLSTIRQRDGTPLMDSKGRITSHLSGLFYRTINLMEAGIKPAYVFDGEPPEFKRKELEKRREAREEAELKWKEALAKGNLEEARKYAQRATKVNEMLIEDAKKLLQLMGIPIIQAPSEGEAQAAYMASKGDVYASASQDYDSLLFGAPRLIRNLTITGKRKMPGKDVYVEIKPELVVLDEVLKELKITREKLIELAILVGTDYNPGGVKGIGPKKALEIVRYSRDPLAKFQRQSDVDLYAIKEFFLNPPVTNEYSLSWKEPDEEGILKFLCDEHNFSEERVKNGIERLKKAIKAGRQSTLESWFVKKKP

T5: Pho FEN1 (Pyrococcus horikoshii, UniProt O50123 SEQ:1-343)
T5 sequence: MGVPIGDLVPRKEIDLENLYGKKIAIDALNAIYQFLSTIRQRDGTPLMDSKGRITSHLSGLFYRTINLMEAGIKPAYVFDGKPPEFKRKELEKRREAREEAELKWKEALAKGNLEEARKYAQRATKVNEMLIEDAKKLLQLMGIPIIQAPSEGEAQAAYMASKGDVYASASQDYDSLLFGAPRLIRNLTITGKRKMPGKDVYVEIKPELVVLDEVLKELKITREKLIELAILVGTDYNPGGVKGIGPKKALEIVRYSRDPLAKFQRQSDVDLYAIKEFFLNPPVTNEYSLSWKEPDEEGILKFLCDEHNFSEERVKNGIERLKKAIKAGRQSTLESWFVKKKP


Columns and labels:
Assay in all cases: cleavage_in_vitro; rate vs Pfu FEN1
[1] = target: T1, Afu FEN1
Method: (§1) For the evaluation of chimeric enzymes, standard tests were performed to measure the performance and specificity of the enzymes. […] 10 μl reactions are run at 59 C for between 5 to 60 minutes depending on the enzyme. Reactions are stopped by the addition of 10 μl of 95% formamide, 0.02% methyl violet. 1 μl of the mixture is run on a denaturing 20% acrylamide gel and electrophoresed for 15 minutes or until good separation is achieved between cleaved and uncleaved probe. The gels are scanned using an FMBIO fluorescent gel scanner and the bands are quantified with FMBIOAnalysis software. Cleavage rates are determined from the percent probe cleaved. Cleavage rate for the INVADER substrate is defined as the number of probe molecules cleaved per target molecule per minute. In Table 5, below, the cleavage rates for the mutant enzymes are compared to the cleavage rates for unmodified Pfu FEN1 enzyme on the INVADER assay and X-structure substrates.
(§2) The X-structure substrate is used to determine the amount of background cleavage an enzyme will carry out in an INVADER reaction. It mimics the structure created by uncut primary probe and secondary FRET cassette in the INVADER squared reaction. […] 10 μl reactions are run at 59 C for between 3 to 30 minutes depending on the enzyme. Reactions are stopped by the addition of 10 μl of 95% formamide, 0.02% methyl violet. 1 μl of the mixture is run on a denaturing 20% acrylamide gel and electophoresed for 15 minutes or until good separation is achieved between cleaved and uncleaved probe. The gels are scanned using an FMBIO fluorescent gel scanner and the bands are quantified with FMBIOAnalysis software. Cleavage rates are determined from the percent probe cleaved.

[2] = target: T2, Mja FEN1
Method: as §1, §2

[3] = target: T3, Pho4M FEN1
Method: as §1, §2

[4] = target: T4, Pho1M FEN1
Method: as §1, §2

[5] = target: T5, Pho FEN1; settings: label: 5'-TET; X-structure
Method: as §1, §2

[6] = label: 5'-biotin target, 5'-TET probe, hairpin target-INVADER with overlapping probe flap

Row | Binder | cleavage rate [1, 6] | cleavage rate [2, 6] | cleavage rate [3, 6] | cleavage rate [4, 6] | cleavage rate ([1]; label: 5'-TET, X-structure) | cleavage rate ([2]; label: 5'-TET, X-structure) | cleavage rate ([3]; label: 5'-TET, X-structure) | cleavage rate [5] | cleavage rate ([4]; label: 5'-TET, X-structure)
1 | INVADER substrate 594-12-1/203-91-1 (structured_DNA) DNA 1: TTTTTCACGGCAGTTGGTGCGCCTCGGAACGAGGCGCACA DNA 2: TTTTCAACTGCCGTGA | 0.52 | 1.9 | 1.3 | 1.1 |  |  |  |  | 
2 | X-structure 203-81-2/203-91-2 (structured_DNA, 3'-NH2 on first strand) DNA 1: TTTTCAACTGCTTAGAGAATCTAAGCAGTTGGTGCGCCTCGTTAA DNA 2: AACGAGGCGCACATT |  |  |  |  | 0.5 | 203 | 2.2 | 120 | 18
